From US20180273632A1 (BIOCEROX PRODUCTS B V, published 2018)
Values belong to the molecule of their own block, whether it stands above or below them.

What was measured:
[1] = target: T1, human CD134 (full-length, on cells) (human, UniProt P43489 29-277); test: flow cytometry, PHA-stimulated human T lymphocytes
T1 construct: also called OX40; TNFRSF4
T1 sequence: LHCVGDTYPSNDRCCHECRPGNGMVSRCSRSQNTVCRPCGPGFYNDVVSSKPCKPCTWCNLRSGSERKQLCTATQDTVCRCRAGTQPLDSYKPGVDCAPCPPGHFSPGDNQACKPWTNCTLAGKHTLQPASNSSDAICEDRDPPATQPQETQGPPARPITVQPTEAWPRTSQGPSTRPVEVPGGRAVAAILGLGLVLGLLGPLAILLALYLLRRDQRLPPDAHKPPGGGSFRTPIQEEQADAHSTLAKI

[2] = target: T1, human CD134 (full-length, on cells); test: flow cytometry, PHA-stimulated human T lymphocytes, two donors
Protocol: PHA-stimulated (at 10 μg/mL for 2 days; see above) human CD134 expressing T lymphocytes were generated. Cells were harvested and put at 1-2×10⁶ cells/mL in ice chilled PBS/BSA/NaN₃ supplemented with 10% HPS (blocking Fcγ receptors; BioWhittaker). […] After extensive washing in PBS/BSA/NaN₃, cells were subsequently incubated with 1:200 diluted PE-conjugated goat anti-mouse IgG antibodies (Jackson ImmunoResearch) for 30 minutes at 4° C. […] After extensive washing in PBS/BSA/NaN₃, cells were fixed in 2% formaldehyde in PBS/BSA/NaN₃ for 30 minutes at 4° C.

[3] = target: T1, human CD134 (full-length, on cells); test: flow cytometry, PHA-stimulated human CD4 positive T lymphocytes
Protocol: PHA-stimulated (at 10 μg/mL for 1 day; see above) human CD134 expressing T lymphocytes were generated. Cells were harvested and put at 1-2×10⁶ cells/mL in ice-chilled PBS/BSA/NaN3. […] After extensive washing in PBS/BSA/NaN₃, cells were subsequently incubated with 1:50 diluted FITC-conjugated mouse anti-human IgG4 antibodies (Sigma) for 30 minutes at 4° C. […] After extensive washing in PBS/BSA/NaN₃, cells were fixed in 2% formaldehyde in PBS/BSA/NaN₃ for 30 minutes at 4° C.

[4] = target: T2, human fibronectin-derived control peptide (extra type III structural domain) (human); test: ELISA, plate coated with 10 ng/well control peptide, HRP goat anti-mouse IgG Fcγ, n=1
T2 construct: Synthesized by Pepscan Presto; coated on ELISA plates at 10 ng/well; also called ED1 peptide
T2 peptide: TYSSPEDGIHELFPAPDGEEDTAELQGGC
Protocol: (§1) Ninety six-wells flat-bottom ELISA plates (Corning) were coated with 10 ng/well human CD134-derived peptide (synthesized by Pepscan Presto, Lelystad, The Netherlands), which corresponded to amino acid sequence of truncated CRD3 A1-module-CRD4 subdomain A1-module (see SEQ ID NO. 38) or with 10 ng/well human fibronectin-derived control peptide (synthesized by Pepscan Presto, Lelystad, The Netherlands), which corresponded to amino acid sequence of extra type III structural domain (see SEQ ID NO. 37) in PBS o/n at 4° C. After extensive washing in PBS/0.05% Tween 20, plates were blocked in PBS/0.05% Tween 20/1% BSA fraction V (Roche) for 1 hour at RT. […] After extensive washing in PBS/0.05% Tween 20, binding of antibodies was determined with 1:5000 diluted horseradish peroxidase-conjugated goat anti-mouse IgG Fcγ-specific antibodies (Jackson ImmunoResearch) for 1 hour at RT, followed by a ready-to-use solution of TMB substrate (lnvitrogen) for colorimetric detection. After adding 1 M H₂SO₄, optical densities was measured at a wavelength of 450 nm (reference wavelength of 655 nm) using a microplate reader (BioRad).

[5] = target: T3, human CD134-derived peptide (truncated CRD3 A1-module-CRD4 subdomain A1-module, amino acids 108-146) (human); test: ELISA, plate coated with 10 ng/well huCD134 peptide, HRP goat anti-mouse IgG Fcγ, n=1
T3 construct: Synthesized by Pepscan Presto; coated on ELISA plates at 10 ng/well
T3 peptide: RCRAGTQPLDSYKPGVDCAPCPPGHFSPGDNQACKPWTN
Protocol: as §1

[6] = target: T4, 'truncated (tc) CRD4' construct of human CD134 (amino acids 147-277 linked to signal peptide amino acids 1-28) (human, UniProt P43489 147-277); test: flow cytometry on 293-F cells transiently transfected with the construct, PE goat anti-mouse IgG (Fcγ) [cont.]
T4 construct: also called truncated CRD4
T4 sequence: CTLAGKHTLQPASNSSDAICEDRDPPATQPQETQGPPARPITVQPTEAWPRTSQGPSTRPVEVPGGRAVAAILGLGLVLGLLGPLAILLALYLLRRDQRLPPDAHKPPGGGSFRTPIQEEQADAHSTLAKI
Protocol: (§2) After 48-72 h, surface human CD134 expression on transfected cells was analyzed by FACS analysis. To this end, transfected cells were harvested and put at 1-2×10⁶ cells/mL in ice-chilled PBS/BSA/NaN₃. […] After extensive washing in PBS/BSA/NaN₃, cells were subsequently incubated with 1:200 diluted PE-conjugated goat anti-mouse IgG (Fcγ specific) antibodies (Jackson ImmunoResearch) for 30 minutes at 4° C. After extensive washing in PBS/BSA/NaN₃, cells were fixed in 2% formaldehyde in PBS/BSA/NaN₃ for 30 minutes at 4° C.

[7] = target: T2, human fibronectin-derived control …; test: ELISA, plate coated with 10 ng/well control peptide, HRP goat anti-human IgG Fcγ, n=1
Protocol: as §1, with “anti-human” for “anti-mouse”, “(invitrogen)” for “(lnvitrogen)”

[8] = target: T3, human CD134-derived peptide (truncated …); test: ELISA, plate coated with 10 ng/well huCD134 peptide, HRP goat anti-human IgG Fcγ, n=1
Protocol: as §1, with “anti-human” for “anti-mouse”, “(invitrogen)” for “(lnvitrogen)”

[9] = target: T4, 'truncated (tc) CRD4' construct of …; test: flow cytometry on 293-F cells transiently transfected with the construct, PE goat anti-human IgG (Fcγ) [cont.]
Protocol: as §2, with “PBS/BSA/NaN3.” for “PBS/BSA/NaN₃.”, “anti-human” for “anti-mouse”

EC50 [2]: 2.5 mg/L
B1: mouse anti-human CD134 monoclonal antibody clone 20E5 (antibody, mouse IgG1, V domains shown)
VH: EVQLQQSGPELVKPGASVKMSCKASGYTFTSYVMHWVKQKPGQGLEWIGYINPYNDGTKYNEKFKGKATLTSDKSSSTAYMELSSLTSEDSAVYYCANYYGSSLSMDYWGQGTSVTVSS
VL: DIQMTQTTSSLSASLGDRVTISCRASQDISNYLNWYQQKPDGTVKLLIYYTSRLHSGVPSRFSGSGSGTDYSLTISNLEQEDIATYFCQQGNTLPWTFGGGTKLEIKR
notes: also called m20E5

binding result [7]: no binding (tested: 50 µg/mL)
binding result [8]: binds
binding result [9]: no binding (tested: 20.0 µg/mL)
B4: chimeric human IgG4κ anti-human CD134 monoclonal antibody clone 12H3 (antibody, V domains shown)
VH: EVQLQQSGPELVKPGASVKISCKTSGYTFKDYTMHWVKQSHGKSLEWIGGIYPNNGGSTYNQNFKDKATLTVDKSSSTAYMEFRSLTSEDSAVYYCARMGYHGPHLDFDVWGAGTTVTVSP
VL: DIVMTQSHKFMSTSLGDRVSITCKASQDVGAAVAWYQQKPGQSPKLLIYWASTRHTGVPDRFTGGGSGTDFTLTISNVQSEDLTDYFCQQYINYPLTFGGGTKLEIKR

Further lines, the molecule ahead of its results:

Molecule: commercially available mouse anti-human CD134 antibody clone ACT35 (BD Biosciences)
saturating concentration [1]: 5 µg/mL
EC50 [2]: 2.5 mg/L

B2: chimeric human IgG4κ anti-human CD134 antibody clone 20E5 (antibody, V domains shown)
VH: EVQLQQSGPELVKPGASVKMSCKASGYTFTSYVMHWVKQKPGQGLEWIGYINPYNDGTKYNEKFKGKATLTSDKSSSTAYMELSSLTSEDSAVYYCANYYGSSLSMDYWGQGTSVTVSS
VL: DIQMTQTTSSLSASLGDRVTISCRASQDISNYLNWYQQKPDGTVKLLIYYTSRLHSGVPSRFSGSGSGTDYSLTISNLEQEDIATYFCQQGNTLPWTFGGGTKLEIKR
notes: also called hu20E5
EC50 [3]: ~1 mg/L

B3: mouse anti-human CD134 monoclonal antibody clone 12H3 (antibody, mouse IgG1, V domains shown)
VH: EVQLQQSGPELVKPGASVKISCKTSGYTFKDYTMHWVKQSHGKSLEWIGGIYPNNGGSTYNQNFKDKATLTVDKSSSTAYMEFRSLTSEDSAVYYCARMGYHGPHLDFDVWGAGTTVTVSP
VL: DIVMTQSHKFMSTSLGDRVSITCKASQDVGAAVAWYQQKPGQSPKLLIYWASTRHTGVPDRFTGGGSGTDFTLTISNVQSEDLTDYFCQQYINYPLTFGGGTKLEIKR
notes: also called m12H3
EC50 [2]: 0.5 mg/L
binding result [4]: no binding (tested: 50 µg/mL)
binding result [5]: binds
binding result [6]: no binding (tested: 20.0 µg/mL)
